Laboratory results taken from patent US7193044.

What was measured:
[1] = test system: T1, Full-length BAD (wildtype), in vitro translated, 35S-methionine labelled, buffer control
T1 sequence: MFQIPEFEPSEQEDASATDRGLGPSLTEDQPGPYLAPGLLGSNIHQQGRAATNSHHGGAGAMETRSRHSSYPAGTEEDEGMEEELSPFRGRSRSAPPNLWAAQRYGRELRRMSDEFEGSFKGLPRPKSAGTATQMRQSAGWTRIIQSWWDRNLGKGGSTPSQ

[2] = test system: GST-BAD S112A [GST: P08515]
[3] = test system: T2, GST-BAD (GST-tagged shorter murine BAD)
T2 sequence: T1 sequence

[4] = test system: GST-BAD S112A/S136A/S155A

Substance: PKA (cAMP-dependent protein kinase), catalytic subunit from bovine heart
- in vitro phosphorylation (32P incorporation, autoradiography) (GST-BAD S155A): dramatically reduced the phosphorylation of the single mutant GST-BAD S155A
- gel-mobility shift after incubation with PKA and ATP [1]: phosphorylation by PKA induced a gel-mobility shift of wild-type BAD
- in vitro phosphorylation (32P incorporation, autoradiography) [2]: the shorter murine BAD, and BAD mutants containing mutations at the serine at a position corresponding to Ser112 and/or Ser136, were good in vitro substrates for PKA
- in vitro phosphorylation (32P incorporation, autoradiography) [3]: the shorter murine BAD, and BAD mutants containing mutations at the serine at a position corresponding to Ser112 and/or Ser136, were good in vitro substrates for PKA
- in vitro phosphorylation (32P incorporation, autoradiography) (GST-BAD S112A/S136A): the shorter murine BAD, and BAD mutants containing mutations at the serine at a position corresponding to Ser112 and/or Ser136, were good in vitro substrates for PKA
- in vitro phosphorylation (32P incorporation, autoradiography) [4]: abolished phosphorylation of the triple mutant GST-BAD S112A/S135A/S155A
- in vitro phosphorylation (32P incorporation, autoradiography) (GST-BAD S136A): the shorter murine BAD, and BAD mutants containing mutations at the serine at a position corresponding to Ser112 and/or Ser136, were good in vitro substrates for PKA
